Measurements taken from patent US20060275803A1, “Rat and mouse members of the CRISP family of genes” (Wyeth, priority 2005, published 2006).

Columns and labels:
substrate peptide = assay: Protease activity of rCRISPA purified with or without the sialidase inhibitor DANA; type: biochemical, rat
Excerpt: The conservation of protease activity between CRISPA and CRISPC is predicted from both the primary amino acid sequence of the PR-1 domain and the overall domain structure conserved among Tex31 and all mammalian CRISPs. The PR-1 domain of Tex31 is hypothesized to contain a basic substrate recognition site with the predicted catalytic residues His130 and Glu115. The mammalian CRISPs have these residues conserved in the PR-1 domain. […] A sialylated glycan on rCRISPA may be influencing the protein's native confirmation and ability to recognize, bind, or cleave its substrate. If rat CRISPC is glycosylated and sialylated, the glycan may also be involved in the protein's confirmation and ability to recognize, bind, or cleave its substrate.
A protocol for the purification of rCRISPA (rCRISP1) from the epididymis was published in 1997 (Hall J. C. & Tubbs C. E., Prep. Biochem. Biotechnol. 27:239-51 (1997), incorporated herein by reference). Applicants have modified this protocol to include the following amounts of 2,3-dehydro-2-deoxy-N-acetyineuraminic acid (DANA) as an inhibitor of sialidase activity in each of the following buffers:
Protease activity was determined by measuring fluorescence (as per the manufacturer's protocol) at ten minute intervals for 130 minutes in the following assay conditions: […] substrate peptide, […] rCRISPA, 100 mM NaCl, 25 mM Tris-Cl, pH 7.5. […]

[1] = biological target: T1, substrate peptide H07 (RVKRQVRS) (not fully specified)
T1 chain: RVKRQVRS

[2] = biological target: T2, substrate peptide B17 (RQRYGKRS) (not fully specified)
T2 chain: RQRYGKRS

[3] = biological target: T3, substrate peptide C16 (RVLGLKAH) (not fully specified)
T3 chain: RVLGLKAH

[4] = biological target: T4, substrate peptide A10 (SAARPAPP) (not fully specified)
T4 chain: SAARPAPP

[5] = biological target: T5, substrate peptide N05 (RARRELAP) (not fully specified)
T5 chain: RARRELAP

[6] = biological target: T6, substrate peptide A01 (WQGGRRKF) (not fully specified)
T6 chain: WQGGRRKF

[7] = biological target: T7, substrate peptide J03 (PQLHSTGG) (not fully specified)
T7 chain: PQLHSTGG

[8] = biological target: T8, substrate peptide J21 (LRNRAQSG) (not fully specified)
T8 chain: LRNRAQSG

[9] = biological target: T9, substrate peptide H01 (RKKRSTKK) (not fully specified)
T9 chain: RKKRSTKK

[10] = biological target: T10, substrate peptide O23 (KNVAMQKG) (not fully specified)
T10 chain: KNVAMQKG

[11] = biological target: T11, substrate peptide B23 (RVKRYRQS) (not fully specified)
T11 chain: RVKRYRQS

[12] = biological target: T12, substrate peptide H17 (NGLRADPM) (not fully specified)
T12 chain: NGLRADPM

[13] = biological target: T13, substrate peptide N10 (FYRADQPR) (not fully specified)
T13 chain: FYRADQPR

[14] = biological target: T14, substrate peptide H11 (RRLLRAIP) (not fully specified)
T14 chain: RRLLRAIP

[15] = biological target: T15, substrate peptide B20 (PQRFGRNT) (not fully specified)
T15 chain: PQRFGRNT

[16] = biological target: T16, substrate peptide N08 (RKRRAPLA) (not fully specified)
T16 chain: RKRRAPLA

[17] = biological target: T17, substrate peptide H02 (RAKRSVHF) (not fully specified)
T17 chain: RAKRSVHF

[18] = biological target: T18, substrate peptide H03 (RNKRAVQG) (not fully specified)
T18 chain: RNKRAVQG

[19] = biological target: T19, substrate peptide M07 (GLQRALEI) (not fully specified)
T19 chain: GLQRALEI

[20] = biological target: T20, substrate peptide M02 (EKQRIIGG) (not fully specified)
T20 chain: EKQRIIGG

[21] = biological target: T21, substrate peptide N17 (RKRRAVLT) (not fully specified)
T21 chain: RKRRAVLT

[22] = biological target: T22, substrate peptide M18 (VHRDMAAR) (not fully specified)
T22 chain: VHRDMAAR

[23] = biological target: T23, substrate peptide C23 (RDAQAHPG) (not fully specified)
T23 chain: RDAQAHPG

[24] = biological target: T24, substrate peptide B22 (APQRFGKK) (not fully specified)
T24 chain: APQRFGKK

[25] = biological target: T25, substrate peptide L16 (KTPRWGG) (not fully specified)
T25 chain: KTPRWGG

[26] = biological target: T26, substrate peptide A09 (RMRRYADA) (not fully specified)
T26 chain: RMRRYADA

[27] = biological target: T27, substrate peptide M09 (GSQHIRAE) (not fully specified)
T27 chain: GSQHIRAE

[28] = biological target: T28, substrate peptide A04 (RGARARLG) (not fully specified)
T28 chain: RGARARLG

[29] = biological target: T29, substrate peptide O22 (GGVRGPRV) (not fully specified)
T29 chain: GGVRGPRV

[30] = biological target: T30, substrate peptide B11 (AAGVAPLS) (not fully specified)
T30 chain: AAGVAPLS

[31] = biological target: T31, substrate peptide E19 (RLGREGVQ) (not fully specified)
T31 chain: RLGREGVQ

[32] = biological target: T32, substrate peptide D06 (ALAEAMKK) (not fully specified)
T32 chain: ALAEAMKK

[33] = biological target: T33, substrate peptide O16 (AATRRQAV) (not fully specified)
T33 chain: AATRRQAV

[34] = biological target: T34, substrate peptide C01 (GPQGLLGA) (not fully specified)
T34 chain: GPQGLLGA

[35] = biological target: T35, substrate peptide G24 (RRKRSTRE) (not fully specified)
T35 chain: RRKRSTRE

[36] = biological target: T36, substrate peptide N12 (AKRAASQI) (not fully specified)
T36 chain: AKRAASQI

[37] = biological target: T37, substrate peptide K11 (VIPRSGGS) (not fully specified)
T37 chain: VIPRSGGS

[38] = biological target: T38, substrate peptide M16 (RSRREADL) (not fully specified)
T38 chain: RSRREADL

[39] = biological target: T39, substrate peptide A05 (SYRKVLGQ) (not fully specified)
T39 chain: SYRKVLGQ

B1: native rCRISPA (rCRISP1) purified from epididymis in the presence of DANA (protein)
chain: QDTTDEWDRDLENLSTTKLSVQEEIINKHNQLRRTVSPSGSDLLRVEWDHDAYVNAQKWANRCIYNHSPLQHRTTTLKCGENLFMANYPASWSSVIQDWYDESLDFVFGFGPKKVGVKVGHYTQVVWNSTFLVACGVAECPDQPLKYFYVCHYCPGGNYVGRLYSPYTEGEPCDSCPGNCEDGLCTNSCEYEDNYSNCGDLKKMVSCDDPLLKEGCRASCFCEDKIH
protease activity of rCRISPA (substrate peptide; purified using known procedures without DANA present): lacking protease activity
protease activity of rCRISPA (substrate peptide; purified with DANA present): with protease activity
protease activity (fluorescence of substrate peptide) [1]: Cleaved peptides H07 (RVKRQVRS)
protease activity (fluorescence of substrate peptide) [2]: Cleaved peptides B17 (RQRYGKRS)
protease activity (fluorescence of substrate peptide) [3]: Cleaved peptides C16 (RVLGLKAH)
protease activity (fluorescence of substrate peptide) [4]: Uncleaved peptides A10 (SAARPAPP)
protease activity (fluorescence of substrate peptide) [5]: Cleaved peptides N05 (RARRELAP)
protease activity (fluorescence of substrate peptide) [6]: Uncleaved peptides A01 (WQGGRRKF)
protease activity (fluorescence of substrate peptide) [7]: Uncleaved peptides J03 (PQLHSTGG)
protease activity (fluorescence of substrate peptide) [8]: Cleaved peptides J21 (LRNRAQSG)
protease activity (fluorescence of substrate peptide) [9]: Cleaved peptides H01 (RKKRSTKK)
protease activity (fluorescence of substrate peptide) [10]: Cleaved peptides O23 (KNVAMQKG)
protease activity (fluorescence of substrate peptide) [11]: Cleaved peptides B23 (RVKRYRQS)
protease activity (fluorescence of substrate peptide) [12]: Cleaved peptides H17 (NGLRADPM)
protease activity (fluorescence of substrate peptide) [13]: Uncleaved peptides N10 (FYRADQPR)
protease activity (fluorescence of substrate peptide) [14]: Cleaved peptides H11 (RRLLRAIP)
protease activity (fluorescence of substrate peptide) [15]: Cleaved peptides B20 (PQRFGRNT)
protease activity (fluorescence of substrate peptide) [16]: Cleaved peptides N08 (RKRRAPLA)
protease activity (fluorescence of substrate peptide) [17]: Uncleaved peptides H02 (RAKRSVHF)
protease activity (fluorescence of substrate peptide) [18]: Cleaved peptides H03 (RNKRAVQG)
protease activity (fluorescence of substrate peptide) [19]: Uncleaved peptides M07 (GLQRALEI)
protease activity (fluorescence of substrate peptide) [20]: Cleaved peptides M02 (EKQRIIGG)
protease activity (fluorescence of substrate peptide) [21]: Cleaved peptides N17 (RKRRAVLT)
protease activity (fluorescence of substrate peptide) [22]: Uncleaved peptides M18 (VHRDMAAR)
protease activity (fluorescence of substrate peptide) [23]: Uncleaved peptides C23 (RDAQAHPG)
protease activity (fluorescence of substrate peptide) [24]: Cleaved peptides B22 (APQRFGKK)
protease activity (fluorescence of substrate peptide) [25]: Uncleaved peptides L16 (KTPRWGG)
protease activity (fluorescence of substrate peptide) [26]: Cleaved peptides A09 (RMRRYADA)
protease activity (fluorescence of substrate peptide) [27]: Uncleaved peptides M09 (GSQHIRAE)
protease activity (fluorescence of substrate peptide) [28]: Cleaved peptides A04 (RGARARLG)
protease activity (fluorescence of substrate peptide) [29]: Cleaved peptides O22 (GGVRGPRV)
protease activity (fluorescence of substrate peptide) [30]: Uncleaved peptides B11 (AAGVAPLS)
protease activity (fluorescence of substrate peptide) [31]: Uncleaved peptides E19 (RLGREGVQ)
protease activity (fluorescence of substrate peptide) [32]: Uncleaved peptides D06 (ALAEAMKK)
protease activity (fluorescence of substrate peptide) [33]: Cleaved peptides O16 (AATRRQAV)
protease activity (fluorescence of substrate peptide) [34]: Uncleaved peptides C01 (GPQGLLGA)
protease activity (fluorescence of substrate peptide) [35]: Cleaved peptides G24 (RRKRSTRE)
protease activity (fluorescence of substrate peptide) [36]: Cleaved peptides N12 (AKRAASQI)
protease activity (fluorescence of substrate peptide) [37]: Uncleaved peptides K11 (VIPRSGGS)
protease activity (fluorescence of substrate peptide) [38]: Uncleaved peptides M16 (RSRREADL)
protease activity (fluorescence of substrate peptide) [39]: Uncleaved peptides A05 (SYRKVLGQ)
